According to patent US20200123576, “Platform for developing stable mammalian cell lines” (Icosagen Cell Factory OÜ, published 2020):

Target: BPV1 E2 protein (Bovine papillomavirus 1, UniProt P03122 P03122:1-410)
Test: cell_activity
Conditions: chain copies: 2

Chain of BPV1 E2 protein (P03122 whole entry, one chain of several): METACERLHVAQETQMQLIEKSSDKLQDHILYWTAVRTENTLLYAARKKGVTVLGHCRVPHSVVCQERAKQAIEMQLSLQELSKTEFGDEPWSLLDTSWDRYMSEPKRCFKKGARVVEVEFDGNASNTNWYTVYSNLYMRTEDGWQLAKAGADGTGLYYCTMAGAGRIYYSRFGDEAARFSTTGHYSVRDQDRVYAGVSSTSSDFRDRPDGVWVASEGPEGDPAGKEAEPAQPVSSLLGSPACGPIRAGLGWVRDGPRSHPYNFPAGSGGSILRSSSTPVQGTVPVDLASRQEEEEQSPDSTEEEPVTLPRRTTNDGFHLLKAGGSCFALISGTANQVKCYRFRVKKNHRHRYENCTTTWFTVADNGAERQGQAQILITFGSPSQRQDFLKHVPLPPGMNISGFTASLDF

B1: BPV1 E2 binding sites (E2BS) (dsDNA)
DNA 1: ACCGTTGCCGGTCGGATCTGTACCGTTGCCGGTCGGATCTGTACCGTTGCCGGTCGGATCTGTACCGTTGCCGGTCGGATCTGTACCGTTGCCGGTCGGATCTGTACCGTTGCCGGTCGGATCTGTACCGTTGCCGGTCGGATCTGTACCGTTGCCGGTCGGATCTGTACCGTTGCCGGTC
DNA 2: GACCGGCAACGGTACAGATCCGACCGGCAACGGTACAGATCCGACCGGCAACGGTACAGATCCGACCGGCAACGGTACAGATCCGACCGGCAACGGTACAGATCCGACCGGCAACGGTACAGATCCGACCGGCAACGGTACAGATCCGACCGGCAACGGTACAGATCCGACCGGCAACGGT
Binder B1 has a binding signal of about 3.5 fold.
